What was measured:
Test in all cases: competition binding; FIG. 35A
HLA-DRB1*1101 = HLA-DRB1*1101 (human)
HLA-DRB1*0101 = HLA-DRB1*0101 (human)
HLA-DRB1*1301 = HLA-DRB1*1301 (human)
HLA-DRB1*0401 = HLA-DRB1*0401 (human)
HLA-DRB1*0701 = HLA-DRB1*0701 (human)
HLA-DRB1*1501 = HLA-DRB1*1501 (human)
HLA-DRB1*0301 = HLA-DRB1*0301 (human)

Row | Binder | IC50 (HLA-DRB1*1101) [µM] | IC50 (HLA-DRB1*0101) [µM] | IC50 (HLA-DRB1*1301) [µM] | IC50 (HLA-DRB1*0401) [µM] | IC50 (HLA-DRB1*0701) [µM] | IC50 (HLA-DRB1*1501) [µM] | IC50 (HLA-DRB1*0301) [µM]
1 | SHEFHAINGMIYSLP [SEQ ID NO: 7 (SHEFHAINGMIYSLP)] | 33.7 | < 1 | 84.4 | 30.6 | < 1 | < 1 | –
2 | KIVFKNMASRPYSIY [SEQ ID NO: 3 (KIVFKNMASRPYSIY)] | 4.36 | 2.17 | 2.96 | 20.1 | 7.03 | 2.69 | 78.6

Further binders by falling IC50 (HLA-DRB1*1501), results first:

Row | IC50 (HLA-DRB1*1101) [µM] | IC50 (HLA-DRB1*0101) [µM] | IC50 (HLA-DRB1*1301) [µM] | IC50 (HLA-DRB1*0401) [µM] | IC50 (HLA-DRB1*0701) [µM] | IC50 (HLA-DRB1*1501) [µM] | IC50 (HLA-DRB1*0301) [µM] | Binder
3 | – | – | – | 96.4 | 2.79 | 4.22 | 80.5 | ESNIMSTINGYVPES [SEQ ID NO: 5 (ESNIMSTINGYVPES)]
4 | – | 1.92 | – | – | – | 2.02 | – | EKDIHSGLIGPLLI [SEQ ID NO: 6 (EKDIHSGLIGPLLI)]
